Reference: patent US20150320848A1

Key:
Experiment in all cases: REVEAL MHC-peptide binding assay; score relative to positive control
[1] = molecular target: HLA-DR7
[2] = molecular target: HLA-DR2
[3] = molecular target: HLA-DR4
[4] = molecular target: HLA-DR1
[5] = molecular target: HLA-DR5

Measured: binding score (% compared to the positive control)

B1: GALNT7-001 (peptide)
peptide: GNQLFRINEANQLMQ
> 15%: [1] | [2] | [3] | [4]

B2: ERGIC1-001 (peptide)
peptide: FEGQFSINKVPGNFHVS
> 15%: [5] | [3]
